From patent publication US11434289B2, “Anti-GPR20 antibody and anti-GPR20 antibody-drug conjugate” (DAIICHI SANKYO COMPANY, LIMITED, priority 2017, dated 2022)

Experiments:
[1] = target: T1, human GPR20 with EC1 substituted with a mouse GPR20-derived sequence (Mus musculus, UniProt Q8BYC4, A277V/A334G/A336G/DEL187-187/DEL317-317/F111Y/F318R/G190S/I170A/I299V/I338H/I343A/K166R/K271H/K319E/K330R/M323G/N268D/P337R/P351A/Q152R/R229H/R314H/S188T/S192P/S345P/T332S/T347A/T353A/T60A/T88I/V178A/V247I/V269M/V56A/W159C/Y312G); assay: Cell-ELISA binding to human/mouse chimeric GPR20 (EC1 substituted); settings: hGPR20_mECD1, FIG. 22
T1 construct: expressed in transfected cells; host or cells: 293α cells, transient
Experimental: The culture supernatant of the 293a cells transfected with the expression vector prepared in Example 1)-4-1 was removed, and the culture supernatant from each hybridoma was then added to the 293a cells transfected either with pcDNA3.1-hGPR20 or pcDNA3.1. The cells were left standing at 4° C. for 1 hour. The cells in the wells were washed once with PBS (+) supplemented with 5% FBS, and thereafter, Anti-Rat IgG-Peroxidase antibody produced in rabbit (Sigma-Aldrich Co. LLC) that had been 500-fold diluted with PBS (+) supplemented with 5% FBS was added to the wells. The cells were left standing at 4° C. for 1 hour. The cells in the wells were washed three times with PBS (+) supplemented with 5% FBS, and thereafter, OPD chromogenic solution (which had been prepared by dissolving o-phenylenediamine dihydrochloride (Wako Pure Chemical Industries, Ltd.) and H2O2 in an OPD solution (0.05 M trisodium citrate, 0.1 M disodium hydrogen phosphate 12-water; pH 4.5), so that the substances became 0.4 mg/ml and 0.6% (v/v), respectively) was added in an amount of 100 μL/well to the wells. A coloring reaction was carried out with occasional stirring. Thereafter, 1 M HCl was added to the plate (100 μL/well) to terminate the coloring reaction, followed by measurement of the absorbance at 490 nm using a plate reader (ENVISION: PerkinElmer, Inc.).
An expression vector for human GPR20 with EC1 substituted with a mouse GPR20-derived sequence was constructed using an In-Fusion (registered trademark) HD Cloning Kit (Clontech Laboratories, Inc.). Specifically, using the full-length human GPR20 expression vector pcDNA3.1-hGPR20 produced in Example 1 as a template, a PCR reaction was carried out with the primer set given below and KOD FX DNA polymerase (Toyobo Co., Ltd.) at 10 cycles each involving 98° C. for 10 seconds, 58° C. for 30 seconds, and 68° C. for 7 minutes to amplify a DNA fragment comprising the vector sequence. […]

human GPR20 = target: T2, human GPR20 (Homo sapiens, UniProt Q99678); assay: Human GPR20-binding antibody screening by flow cytometry (hybridoma culture supernatants, transfected 293T cells); settings: hybridoma culture supernatant; 293T cells transfected with pcDNA3.1-hGPR20 vs control pcDNA3.1; FIG. 18
T2 construct: expressed in transfected cells; host or cells: 293T cells, transient, Lipofectamine 2000
Experimental: 293T cells were seeded in a 225-cm^2 flask (Sumitomo Bakelite Co., Ltd.) at 5×10^4 cells/cm^2, and the cells were then cultured overnight under conditions of 37° C. and 5% CO2 in DMEM medium supplemented with 10% FBS. pcDNA3.1-hGPR20 or pcDNA3.1 as a negative control was introduced into the 293T cells using Lipofectamine 2000, and the cells were further cultured overnight under conditions of 37° C. and 5% CO2. The 293T cells transfected with each expression vector were treated with TrypLE Express (Life Technologies Corp.), and the cells were washed with DMEM supplemented with 10% FBS, and then suspended in PBS supplemented with 5% FBS. The obtained cell suspension was used in flow cytometry analysis.
The binding specificity to human GPR20 of an antibody produced from hybridomas that had been determined to be positive by Cell-ELISA in Example 1)-4-2 was further confirmed by flow cytometry. The suspension of the transiently expressing 293T cells prepared in Example 1)-5-1 was centrifuged, and a supernatant was then removed. Thereafter, the cells were suspended by the addition of the culture supernatant from each hybridoma. The cells were left standing at 4° C. for 1 hour. The cells were washed twice with PBS supplemented with 5% FBS, and thereafter, the cells were suspended by the addition of Anti-Rat IgG FITC conjugate (Sigma-Aldrich Co. LLC) that had been 500-fold diluted with PBS supplemented with 5% FBS. […] The data was analyzed using Flowjo (Tree Star, Inc.). After dead cells were removed from analysis by gating out 7-aminoactinomycin D-positive cells, a histogram of the FITC fluorescence intensity of live cells was generated. Hybridomas producing human GPR20-binding antibodies (178 clones) were selected based on results where the histogram for the antibody shifted to the strong fluorescence intensity side in the 293T cells transfected with pcDNA3.1-hGPR20 compared with the 293T cells transfected with the control pcDNA3.1. […] The abscissa of FIG. 18 depicts clone No., and the ordinate thereof depicts the amount of the antibody bound based on MFI (mean fluorescence intensity).

T2 sequence (Q99678 whole entry): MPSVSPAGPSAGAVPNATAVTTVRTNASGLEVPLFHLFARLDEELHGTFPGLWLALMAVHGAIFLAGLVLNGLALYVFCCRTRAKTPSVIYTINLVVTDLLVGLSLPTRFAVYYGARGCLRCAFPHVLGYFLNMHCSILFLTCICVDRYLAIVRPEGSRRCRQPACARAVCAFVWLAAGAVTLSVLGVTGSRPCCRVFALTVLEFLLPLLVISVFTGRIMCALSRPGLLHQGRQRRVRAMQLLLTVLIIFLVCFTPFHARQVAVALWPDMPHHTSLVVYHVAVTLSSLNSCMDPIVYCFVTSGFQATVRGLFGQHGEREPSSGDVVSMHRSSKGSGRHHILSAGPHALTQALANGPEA
T1 sequence (Q8BYC4 with tags, fused parts or gaps with the stated changes): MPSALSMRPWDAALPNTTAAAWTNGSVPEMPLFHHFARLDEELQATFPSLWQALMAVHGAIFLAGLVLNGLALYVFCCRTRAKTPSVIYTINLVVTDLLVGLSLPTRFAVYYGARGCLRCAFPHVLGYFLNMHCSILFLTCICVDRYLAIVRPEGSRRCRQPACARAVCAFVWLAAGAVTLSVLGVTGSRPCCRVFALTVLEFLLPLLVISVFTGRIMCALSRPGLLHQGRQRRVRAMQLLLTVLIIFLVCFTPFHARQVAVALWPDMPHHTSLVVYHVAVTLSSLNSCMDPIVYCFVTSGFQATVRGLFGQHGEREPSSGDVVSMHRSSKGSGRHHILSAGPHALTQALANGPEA

Molecule	binding activity after substituting EC1 of human GPR20 with that of mouse-derived GPR20 [1]	binding to human GPR20 (amount of the antibody bound based on MFI) (human GPR20)
04-079: rat anti-human GPR20 antibody; heavy chain SEQ ID NO: 12, light chain SEQ ID NO: 17 (antibody, listed as Rattus norvegicus, SIGNAL (1)..(19); SIGNAL (1)..(20)) heavy: MEWNWVFLFLLSVTAVVHSQVQLQQSGAELAKPGSSVKISCKASGYTFTSYYITWIKQTTGQGLKYIGYINPGSGHTNYNEKFKGKATLTVDKSSSTAFMQLSSLTPDDSAVYYCARGAGGFLRIISKFDYWGQGVMVTVSSAQTTAPSVYPLAPGCGDTTSSTVTLGCLVKGYFPEPVTVTWNSGALSSDVHTFPAVLQSGLYTLTSSVTSSTWPSQTVTCNVAHPASSTKVDKKVERRNGGIGHKCPTCPTCHKCPVPELLGGPSVFIFPPKPKDILLISQNAKVTCVVVDVSEEEPDVQFSWFVNNVEVHTAQTQPREEQYNSTFRVVSALPIQHQDWMSGKEFKCKVNNKALPSPIEKTISKPKGLVRKPQVYVMGPPTEQLTEQTVSLTCLTSGFLPNDIGVEWTSNGHIEKNYKNTEPVMDSDGSFFMYSKLNVERSRWDSRAPFVCSVVHEGLHNHHVEKSISRPPGK light: METDRLLLWVLLLWVPGSTGDTVLTQSPALAVSLGQRVTISCRASKSVSTYMHWYQQRSGQQPKLLIYSASNLESGVPSRFSGSGSGTDFTLTIDPVKADDITNYYCQQSNELPYTFGAGTKLELKRADAAPTVSIFPPSTEQLATGGASVVCLMNNFYPRDISVKWKIDGTERRDGVLDSVTDQDSKDSTYSMSSTLSLTKADYESHNLYTCEVVHKTSSSPVVKSFNRNEC	lost binding activity	specifically binding to human GPR20
04-126: rat anti-human GPR20 antibody; heavy chain SEQ ID NO: 22, light chain SEQ ID NO: 27 (antibody, listed as Rattus norvegicus, SIGNAL (1)..(19); SIGNAL (1)..(20)) heavy: MEWNWVFLFLLSVTAEVHSQVQLRQSGAELAKPGSSVKISCKASGYTFTSYYIIWMKQTAGQGLQYVGYINPGSGHTNYNEKFKGKATLTVDKSSSTAFMQLSSLTPDDSAVYYCARGTGGFLRIISKFDYWGQGVMVTVSSAQTTAPSVYPLAPGCGDTTSSTVTLGCLVKGYFPEPVTVTWNSGALSSDVHTFPAVLQSGLYTLTSSVTSSTWPSQTVTCNVAHPASSTKVDKKVERRNGGIGHKCPTCPTCHKCPVPELLGGPSVFIFPPKPKDILLISQNAKVTCVVVDVSEEEPDVQFSWFVNNVEVHTAQTQPREEQYNSTFRVVSALPIQHQDWMSGKEFKCKVNNKALPSPIEKTISKPKGLVRKPQVYVMGPPTEQLTEQTVSLTCLTSGFLPNDIGVEWTSNGHIEKNYKNTEPVMDSDGSFFMYSKLNVERSRWDSRAPFVCSVVHEGLHNHHVEKSISRPPGK light: METDRLLLWVLLLWVPGSTGDTVLTQSPALAVSLGQRVTISCRASKSVSTYMHWYQQRSGQQPKLLIYSASTLESGVPSRFSGSGSGTDFTLTIDPVEADDIANYYCQQSNELPYTFGAGTKLELKRADAAPTVSIFPPSTEQLATGGASVVCLMNNFYPRDISVKWKIDGTERRDGVLDSVTDQDSKDSTYSMSSTLSLTKADYESHNLYTCEVVHKTSSSPVVKSFNRNEC	lost binding activity	specifically binding to human GPR20
04-046: rat anti-human GPR20 antibody; heavy chain SEQ ID NO: 2, light chain SEQ ID NO: 7 (antibody, listed as Rattus norvegicus, SIGNAL (1)..(19); SIGNAL (1)..(20)) heavy: MEWNWVFLFLLSVTAEVHSQVQLQQSGAELAKPGSSVKISCKASGYTFTSYYISWIKQTTGQGLKYIGFINPGSGHTNYNEKFKGKATLTVDKSSSTAFMQLSSLTPDDSAIYYCARGAGGFLRIITKFDYWGQGVMVTVSSAQTTAPSVYPLAPGCGDTTSSTVTLGCLVKGYFPEPVTVTWNSGALSSDVHTFPAVLQSGLYTLTSSVTSSTWPSQTVTCNVAHPASSTKVDKKVERRNGGIGHKCPTCPTCHKCPVPELLGGPSVFIFPPKPKDILLISQNAKVTCVVVDVSEEEPDVQFSWFVNNVEVHTAQTQPREEQYNSTFRVVSALPIQHQDWMSGKEFKCKVNNKALPSPIEKTISKPKGLVRKPQVYVMGPPTEQLTEQTVSLTCLTSGFLPNDIGVEWTSNGHIEKNYKNTEPVMDSDGSFFMYSKLNVERSRWDSRAPFVCSVVHEGLHNHHVEKSISRPPGK light: METDRLLLWVLLLWVPGSTGDTVLTQSPALAVSLGQRVTISCRASKSVSTYIHWYQQRSGQQPKLLIYSASNLESGVPSRFSGSGSGTDFTLTIDPVEPDDIANYYCQQINELPYTFGAGTKLELKRADAAPTVSIFPPSTEQLATGGASVVCLMNNFYPRDISVKWKIDGTERRDGVLDSVTDQDSKDSTYSMSSTLSLTKADYESHNLYTCEVVHKTSSSPVVKSFNRNEC	lost binding activity	specifically binding to human GPR20
